From patent publication US20170159065A1 (VIB VZW, published 2017)

T1: JAZ3 (Arabidopsis, UniProt Q9LVI4 1-352)
T1 construct: Endogenous prey in TAP; Y2H fusion in the yeast assays
T1 sequence (looked up): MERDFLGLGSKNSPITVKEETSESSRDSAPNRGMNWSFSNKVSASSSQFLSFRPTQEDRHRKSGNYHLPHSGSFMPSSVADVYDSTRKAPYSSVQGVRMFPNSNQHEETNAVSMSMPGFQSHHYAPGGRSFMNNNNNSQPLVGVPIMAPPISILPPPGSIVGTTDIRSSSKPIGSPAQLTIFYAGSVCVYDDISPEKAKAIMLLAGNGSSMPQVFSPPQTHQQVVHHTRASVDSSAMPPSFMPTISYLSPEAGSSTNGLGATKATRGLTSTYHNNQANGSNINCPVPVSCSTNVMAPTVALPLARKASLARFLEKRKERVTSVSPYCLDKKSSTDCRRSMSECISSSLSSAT

T2: TIFY8 (Arabidopsis, UniProt Q84MB2 1-361)
T2 sequence (looked up): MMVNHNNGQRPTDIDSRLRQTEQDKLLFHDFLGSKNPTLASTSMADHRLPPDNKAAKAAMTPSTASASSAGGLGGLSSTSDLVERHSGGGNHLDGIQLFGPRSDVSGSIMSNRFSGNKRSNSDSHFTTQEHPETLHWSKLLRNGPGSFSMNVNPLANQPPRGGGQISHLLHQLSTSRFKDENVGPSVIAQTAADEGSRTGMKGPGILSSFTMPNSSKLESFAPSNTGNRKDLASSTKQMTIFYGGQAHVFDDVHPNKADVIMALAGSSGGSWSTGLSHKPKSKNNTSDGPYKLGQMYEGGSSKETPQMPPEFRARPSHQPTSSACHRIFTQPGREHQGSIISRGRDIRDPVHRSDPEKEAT

B1: PPD1 (other, Arabidopsis thaliana, UniProt Q7XA73 1-313, looked up)
chain: MDVGVSPAKSILAKPLKLLTEEDISQLTREDCRKFLKDKGMRRPSWNKSQAIQQVLSLKALYEPGDDSGAGIFRKILVSQPVNPPRVTTTLIEPSNELEACGRVSYPEDNGACHRMDSPRSAEFSGGSGHFVSEKDGHKTTISPRSPAETSELVGQMTIFYSGKVNVYDGIPPEKARSIMHFAANPIDLPENGIFASSRMISKLISKEKMMELPQKGLEKANSSRDSGMEGQANRKVSLQRYREKRKDRKFSKAKKCPGVASSSLEMFLNCQPRMKAAYSQNLGCTGSPLHSQSPESQTKSPNLSVDLNSEGI
notes: Y2H fusion; also called PEAPOD1
B2: PPD2 (PEAPOD2) (other, Arabidopsis thaliana, UniProt Q8GY55 1-315, looked up)
chain: MDVGVTTAKSILEKPLKLLTEEDISQLTREDCRKFLKEKGMRRPSWNKSQAIQQVLSLKALYEPGDDSGAGILRKILVSQPPNPPRVTTTLIEPRNELEACGRIPLQEDDGACHRRDSPRSAEFSGSSGQFVADKDSHKTVSVSPRSPAETNAVVGQMTIFYSGKVNVYDGVPPEKARSIMHFAANPIDLPENGIFASSRMISKPMSKEKMVELPQYGLEKAPASRDSDVEGQANRKVSLQRYLEKRKDRRFSKTKKAPGVASSSLEMFLNRQPRMNAAYSQNLSGTGHCESPENQTKSPNISVDLNSDLNSEDN
notes: Used as tagged bait in TAP from Arabidopsis cell culture and as a GAL4 fusion in Y2H/Y3H; the tags and fusion partners are not described; also called PPD2-HBH

Tests used:
[1] = target: the molecule itself; assay: yeast two-hybrid
[2] = target: B2; assay: yeast two-hybrid
[3] = target: T1, JAZ3; assay: tandem affinity purification (TAP) from Arabidopsis cell culture, Orbitrap mass spectrometry
Source text: (§1) PPD proteins belong to the class II of the TIFY protein family together with 12 JAZ proteins […]. In the TIFY proteins, diverse domains are associated with different protein-protein interaction abilities, previously being able to isolate, by using tandem affinity purification (TAP), protein complexes from Arabidopsis cell cultures over-expressing JAZ proteins and to identify their interacting proteins (Pauwels et al., 2010). In order to determine the protein complex associated to PPD2, an updated and more sensitive protocol was applied using Orbitrap mass spectrometry (Eloy et al., 2012). […] To test this hypothesis, all 12 JAZ proteins, PPD1, PPD2 and TIFY8 for interaction with the PPD proteins were tested using yeast two-hybrid (Y2H) assays. These confirmed direct interaction with JAZ3 and TIFY8 and provided evidence of homo- and heterodimerization between PPD1 and PPD2. Moreover, the TAP analysis identified the TPL-adaptor protein NINJA and two proteins of yet unknown function, encoded by At3g24150 and At4g32295 and named KIX8 and KIX9 (see Table 3, Thakur et al., 2013).

[4] = target: T2, TIFY8; assay: as above
Source text: as §1

| Binder | binding result [1] | binding result [2] | binding result [3] | binding result [4] |
| --- | --- | --- | --- | --- |
| B1 | binds | binds |  |  |
| B2 | binds |  | binds | binds |
